According to article PMC3297582, “Spo0A∼P Imposes a Temporal Gate for the Bimodal Expression of Competence in Bacillus subtilis” (PLoS Genetics, 2012):

Target: the molecule itself
Assay: SEC; Superdex 200 column; Spo0A after phosphorylation with phosphoramidate; buffer not stated

B1: Spo0A∼P (phosphorylated form of the response-regulator protein Spo0A) (natural protein, Bacillus subtilis, UniProt P06534 1-267, looked up)
chain: MEKIKVCVADDNRELVSLLSEYIEGQEDMEVIGVAYNGQECLSLFKEKDPDVLVLDIIMPHLDGLAVLERLRESDLKKQPNVIMLTAFGQEDVTKKAVDLGASYFILKPFDMENLVGHIRQVSGNASSVTHRAPSSQSSIIRSSQPEPKKKNLDASITSIIHEIGVPAHIKGYLYLREAISMVYNDIELLGSITKVLYPDIAKKFNTTASRVERAIRHAIEVAWSRGNIDSISSLFGYTVSMTKAKPTNSEFIAMVADKLRLEHKAS
modifications: phosphorylated with phosphoramidate (residue not given; fraction phosphorylated uncertain)
notes: Spo0A, response regulator of Bacillus subtilis, full length, phosphorylated in vitro; also called OA∼P; source: purified following a published protocol [41] as modified [42]; phosphorylated with non-radioactive phosphoramidate
- stoichiometry N: 2
